Measurements: US20130004519A1 (published 2013)
Values belong to the binder of their own block, whether it stands above or below them.

Legend:
[1] = target: T1, His-tagged human tenascin-C (human, UniProt P24821 23-2201); test: SPR (Biacore 2000), tenascin-C-his on CM5 chip, SMOC1 as analyte 3-300 nM, Langmuir 1:1 model, apparent KD
T1 construct: mature; The same construct was coupled to Sepharose 4B, coupled to the CM5 chip and expressed in COS cells for co-immunoprecipitation; also called TNC; hTNC; not shown: His tag
T1 sequence (P24821 23-2201): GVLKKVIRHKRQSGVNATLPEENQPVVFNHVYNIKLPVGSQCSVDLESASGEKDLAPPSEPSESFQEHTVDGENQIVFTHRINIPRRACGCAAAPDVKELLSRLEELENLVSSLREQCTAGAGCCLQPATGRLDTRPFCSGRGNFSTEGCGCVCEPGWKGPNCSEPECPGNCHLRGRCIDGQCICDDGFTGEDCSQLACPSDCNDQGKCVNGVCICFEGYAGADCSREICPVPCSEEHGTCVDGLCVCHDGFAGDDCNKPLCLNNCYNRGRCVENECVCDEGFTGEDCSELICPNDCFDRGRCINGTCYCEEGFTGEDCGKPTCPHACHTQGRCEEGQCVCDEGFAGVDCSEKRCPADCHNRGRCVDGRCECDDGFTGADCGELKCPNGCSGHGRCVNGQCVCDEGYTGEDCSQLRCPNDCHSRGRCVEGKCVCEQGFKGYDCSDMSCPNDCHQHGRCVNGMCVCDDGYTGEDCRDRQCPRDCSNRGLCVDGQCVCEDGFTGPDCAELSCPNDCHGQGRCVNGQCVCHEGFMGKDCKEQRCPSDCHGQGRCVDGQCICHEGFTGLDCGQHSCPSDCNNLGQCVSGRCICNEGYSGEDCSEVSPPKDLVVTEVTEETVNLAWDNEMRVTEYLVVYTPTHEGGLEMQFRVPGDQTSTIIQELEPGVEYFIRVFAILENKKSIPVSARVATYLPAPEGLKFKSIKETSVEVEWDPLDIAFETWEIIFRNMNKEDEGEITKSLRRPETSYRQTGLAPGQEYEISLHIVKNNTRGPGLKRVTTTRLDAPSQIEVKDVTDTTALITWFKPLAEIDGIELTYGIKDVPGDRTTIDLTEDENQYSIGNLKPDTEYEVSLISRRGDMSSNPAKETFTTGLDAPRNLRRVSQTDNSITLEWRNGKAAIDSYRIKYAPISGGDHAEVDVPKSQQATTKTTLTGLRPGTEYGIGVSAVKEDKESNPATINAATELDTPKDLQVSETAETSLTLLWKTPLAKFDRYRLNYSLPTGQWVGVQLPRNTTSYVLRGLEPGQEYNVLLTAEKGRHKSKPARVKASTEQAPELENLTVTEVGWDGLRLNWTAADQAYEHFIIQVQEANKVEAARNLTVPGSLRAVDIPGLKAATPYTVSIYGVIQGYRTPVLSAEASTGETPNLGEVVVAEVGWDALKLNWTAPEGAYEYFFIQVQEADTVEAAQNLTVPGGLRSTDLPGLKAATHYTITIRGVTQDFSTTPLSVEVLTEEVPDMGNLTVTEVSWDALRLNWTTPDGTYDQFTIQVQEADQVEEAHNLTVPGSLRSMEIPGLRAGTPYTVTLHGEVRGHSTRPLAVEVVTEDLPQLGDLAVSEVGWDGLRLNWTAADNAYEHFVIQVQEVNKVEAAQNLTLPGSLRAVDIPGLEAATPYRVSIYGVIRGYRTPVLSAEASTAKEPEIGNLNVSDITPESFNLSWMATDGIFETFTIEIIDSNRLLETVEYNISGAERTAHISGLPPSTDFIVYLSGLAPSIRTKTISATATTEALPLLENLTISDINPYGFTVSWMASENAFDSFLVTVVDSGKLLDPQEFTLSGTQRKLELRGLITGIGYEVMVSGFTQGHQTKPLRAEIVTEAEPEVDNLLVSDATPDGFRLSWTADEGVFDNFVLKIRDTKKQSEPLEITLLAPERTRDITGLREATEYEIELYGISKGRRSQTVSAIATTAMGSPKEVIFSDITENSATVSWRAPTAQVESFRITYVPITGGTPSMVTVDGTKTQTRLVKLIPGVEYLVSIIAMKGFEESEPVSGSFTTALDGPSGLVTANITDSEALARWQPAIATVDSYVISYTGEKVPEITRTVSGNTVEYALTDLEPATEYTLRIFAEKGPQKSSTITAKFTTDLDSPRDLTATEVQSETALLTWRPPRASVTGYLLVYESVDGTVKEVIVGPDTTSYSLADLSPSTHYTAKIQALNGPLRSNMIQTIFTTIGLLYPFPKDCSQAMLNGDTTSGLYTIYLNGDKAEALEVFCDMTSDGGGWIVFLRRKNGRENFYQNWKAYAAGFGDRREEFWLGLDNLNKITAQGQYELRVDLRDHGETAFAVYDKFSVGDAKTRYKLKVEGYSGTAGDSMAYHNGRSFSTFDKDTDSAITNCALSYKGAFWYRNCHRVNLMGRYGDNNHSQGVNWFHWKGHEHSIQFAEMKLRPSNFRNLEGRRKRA
Procedure: Surface Plasmon Resonance Spectroscopy. Surface plasmon resonance spectroscopy was performed using a Biacore 2000 (BIAcore AB) system. Purified human tenascin-his protein was coupled in 25 mM sodium acetate pH 5 with a flow rate of 5 μl/min to a CM5 chip beforehand activated with N-hydroxysuccinimide and 1-ethyl-3-(3-dimethylaminopropyl)carbodiimide hydrochloride. Unbound reactive groups were then saturated with 1 M ethanolamine hydrochloride, pH 8.5. Experiments were carried out using increasing concentrations (3, 10, 30, 100 and 300 nM) of SMOC1 diluted in running buffer (pH 7.4, 20 mM Hepes, 150 mM NaCl, 2 mM CaCl2, 0.005% P20). The analyte was passed over the sensor chip with a constant flow rate of 25 μl/min for 240 s, and dissociation was measured over 500 s. Fittings of the data, overlay plots, and calculation of KD values were done with BIAevaluation software 4.1.
Interaction between tenascin-C and SMOC1 by Surface Plasmon Resonance Spectroscopy. In order to firmly establish binding between SMOC1 and tenascin-C, the present inventors performed Surface Plasmon Resonance Spectroscopy. Purified his-tagged tenascin-C was coupled to a CM5 chip and SMOC1 were tested as soluble analyte at increasing concentrations. Associations and dissociations of the obtained binding curves were analyzed in a Langmuir 1:1 binding model. […]

[2] = target: T1, His-tagged human tenascin-C; test: pull-down on tenascin-C-Sepharose 4B, multiple reaction monitoring
[3] = target: T2, horse fibronectin coupled to CNBr-activated Sepharose 4B (horse, UniProt Q28377 32-2477, limits assumed); test: pull-down from HEK293 conditioned medium on horse fibronectin-Sepharose 4B, nanoLC-MSMS
T2 construct: Second control column of the pull-down; also called fibronectin column; FN-column
T2 sequence (Q28377 32-2477 limits assumed): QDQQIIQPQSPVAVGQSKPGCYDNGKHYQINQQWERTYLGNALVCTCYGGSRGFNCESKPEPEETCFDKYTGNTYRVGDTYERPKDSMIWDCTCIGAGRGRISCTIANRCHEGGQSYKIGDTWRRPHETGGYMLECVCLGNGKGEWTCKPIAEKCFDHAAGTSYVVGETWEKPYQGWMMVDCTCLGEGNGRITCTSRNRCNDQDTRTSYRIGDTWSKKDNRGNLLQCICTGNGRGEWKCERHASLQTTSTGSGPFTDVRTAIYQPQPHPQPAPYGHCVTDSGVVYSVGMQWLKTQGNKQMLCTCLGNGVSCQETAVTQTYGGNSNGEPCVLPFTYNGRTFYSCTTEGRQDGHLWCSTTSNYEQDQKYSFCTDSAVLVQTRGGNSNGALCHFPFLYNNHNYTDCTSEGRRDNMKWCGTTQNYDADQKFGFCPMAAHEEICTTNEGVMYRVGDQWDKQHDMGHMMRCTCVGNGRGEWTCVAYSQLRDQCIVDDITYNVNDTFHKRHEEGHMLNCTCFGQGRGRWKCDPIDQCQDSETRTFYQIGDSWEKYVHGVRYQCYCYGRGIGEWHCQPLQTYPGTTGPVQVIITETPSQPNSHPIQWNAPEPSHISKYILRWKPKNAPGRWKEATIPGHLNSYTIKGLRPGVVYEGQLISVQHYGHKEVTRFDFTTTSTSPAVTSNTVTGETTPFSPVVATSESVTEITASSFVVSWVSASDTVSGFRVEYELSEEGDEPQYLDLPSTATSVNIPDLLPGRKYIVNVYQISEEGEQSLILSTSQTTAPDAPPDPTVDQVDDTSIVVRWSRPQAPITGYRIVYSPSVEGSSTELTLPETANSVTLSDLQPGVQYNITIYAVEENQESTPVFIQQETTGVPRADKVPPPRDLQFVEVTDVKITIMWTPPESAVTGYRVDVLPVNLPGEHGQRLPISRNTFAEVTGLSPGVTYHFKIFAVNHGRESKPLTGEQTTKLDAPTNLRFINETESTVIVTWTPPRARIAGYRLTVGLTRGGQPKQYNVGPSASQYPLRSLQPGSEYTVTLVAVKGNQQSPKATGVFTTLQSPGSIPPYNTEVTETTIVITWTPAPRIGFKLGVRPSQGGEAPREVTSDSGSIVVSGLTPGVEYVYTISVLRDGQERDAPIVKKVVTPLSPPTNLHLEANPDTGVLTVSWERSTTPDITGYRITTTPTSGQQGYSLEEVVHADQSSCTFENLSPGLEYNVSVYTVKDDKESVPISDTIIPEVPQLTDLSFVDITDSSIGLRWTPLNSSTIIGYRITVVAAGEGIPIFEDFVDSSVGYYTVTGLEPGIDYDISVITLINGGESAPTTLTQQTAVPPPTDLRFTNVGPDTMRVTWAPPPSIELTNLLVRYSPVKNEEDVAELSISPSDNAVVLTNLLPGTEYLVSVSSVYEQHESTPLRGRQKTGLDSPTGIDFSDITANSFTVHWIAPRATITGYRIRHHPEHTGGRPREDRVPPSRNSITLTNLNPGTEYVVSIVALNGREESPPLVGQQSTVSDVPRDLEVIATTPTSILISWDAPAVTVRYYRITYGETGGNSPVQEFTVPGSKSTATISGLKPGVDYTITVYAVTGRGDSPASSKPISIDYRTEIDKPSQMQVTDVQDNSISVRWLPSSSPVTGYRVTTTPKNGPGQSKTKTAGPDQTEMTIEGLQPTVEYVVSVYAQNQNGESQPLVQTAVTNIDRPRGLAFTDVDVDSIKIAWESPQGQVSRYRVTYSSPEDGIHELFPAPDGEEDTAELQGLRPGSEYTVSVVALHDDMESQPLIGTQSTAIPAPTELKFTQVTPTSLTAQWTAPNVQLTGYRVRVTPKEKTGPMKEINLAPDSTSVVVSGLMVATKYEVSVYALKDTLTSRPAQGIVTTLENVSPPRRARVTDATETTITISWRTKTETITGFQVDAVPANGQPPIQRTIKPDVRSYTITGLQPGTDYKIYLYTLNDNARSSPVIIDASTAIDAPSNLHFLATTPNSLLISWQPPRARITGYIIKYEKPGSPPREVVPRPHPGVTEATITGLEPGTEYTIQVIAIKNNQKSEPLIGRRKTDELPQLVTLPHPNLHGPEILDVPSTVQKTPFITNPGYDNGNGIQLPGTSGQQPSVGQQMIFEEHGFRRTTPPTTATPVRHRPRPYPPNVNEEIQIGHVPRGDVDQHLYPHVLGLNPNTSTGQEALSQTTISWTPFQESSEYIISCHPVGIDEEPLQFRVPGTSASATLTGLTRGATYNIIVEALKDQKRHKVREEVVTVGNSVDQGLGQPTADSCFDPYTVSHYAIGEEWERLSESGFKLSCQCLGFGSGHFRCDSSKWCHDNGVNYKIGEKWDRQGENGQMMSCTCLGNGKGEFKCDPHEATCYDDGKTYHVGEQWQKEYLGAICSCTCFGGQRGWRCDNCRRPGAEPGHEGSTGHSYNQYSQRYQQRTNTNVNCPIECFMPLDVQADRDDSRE

Kd [1]: 2.2 nM
B1: human recombinant SMOC1 (soluble analyte in surface plasmon resonance) (other, UniProt Q9H4F8 27-434, looked up)
chain: HRTTGPRFLISDRDPQCNLHCSRTQPKPICASDGRSYESMCEYQRAKCRDPTLGVVHRGRCKDAGQSKCRLERAQALEQAKKPQEAVFVPECGEDGSFTQVQCHTYTGYCWCVTPDGKPISGSSVQNKTPVCSGSVTDKPLSQGNSGRKDDGSKPTPTMETQPVFDGDEITAPTLWIKHLVIKDSKLNNTNIRNSEKVYSCDQERQSALEEAQQNPREGIVIPECAPGGLYKPVQCHQSTGYCWCVLVDTGRPLPGTSTRYVMPSCESDARAKTTEADDPFKDRELPGCPEGKKMEFITSLLDALTTDMVQAINSAAPTGGGRFSEPDPSHTLEERVVHWYFSQLDSNSSNDINKREMKPFKRYVKKKAKPKKCARRFTDYCDLNKDKVISLPELKGCLGVSKEGRLV
notes: mature; also called hSMOC1; not shown: C-terminal tag: either 6 histidines alone (SMOC1-his) or myc-DDK plus 6 histidines

normalized enrichment (MRM), tenascin-C against control [2]: 4.5 fold | MASCOT Score (fibronectin) [3]: 0 | spectrum count (fibronectin) [3]: 0
B2: SPARC-related modular calcium-binding protein 1 (SMOC1) from HEK293 conditioned medium (other, human, UniProt Q9H4F8 27-434, looked up)
chain: B1 chain
notes: Endogenous protein pulled down from medium

MASCOT Score (fibronectin) [3]: 100 | spectrum count (fibronectin) [3]: 6
B3: Phosphoglycerate kinase 1 (enzyme, human, UniProt P00558 2-417, looked up)
chain: SLSNKLTLDKLDVKGKRVVMRVDFNVPMKNNQITNNQRIKAAVPSIKFCLDNGAKSVVLMSHLGRPDGVPMPDKYSLEPVAVELKSLLGKDVLFLKDCVGPEVEKACANPAAGSVILLENLRFHVEEEGKGKDASGNKVKAEPAKIEAFRASLSKLGDVYVNDAFGTAHRAHSSMVGVNLPQKAGGFLMKKELNYFAKALESPERPFLAILGGAKVADKIQLINNMLDKVNEMIIGGGMAFTFLKVLNNMEIGTSLFDEEGAKIVKDLMSKAEKNGVKITLPVDFVTADKFDENAKTGQATVASGIPAGWMGLDCGPESSKKYAEAVTRAKQIVWNGPVGVFEWEAFARGTKALMDEVVKATSRGCITIIGGGDTATCCAKWNTEDKVSHVSTGGGASLELLEGKVLPGVDALSNI
notes: also called PGK1

MASCOT Score (fibronectin) [3]: 0 | spectrum count (fibronectin) [3]: 0
B4: Nidogen-2 (other, human, UniProt Q14112 31-1375, looked up)
chain: LHPDELFPHGESWGDQLLQEGDDESSAVVKLANPLHFYEARFSNLYVGTNGIISTQDFPRETQYVDYDFPTDFPAIAPFLADIDTSHGRGRVLYREDTSPAVLGLAARYVRAGFPRSARFTPTHAFLATWEQVGAYEEVKRGALPSGELNTFQAVLASDGSDSYALFLYPANGLQFLGTRPKESYNVQLQLPARVGFCRGEADDLKSEGPYFSLTSTEQSVKNLYQLSNLGIPGVWAFHIGSTSPLDNVRPAAVGDLSAAHSSVPLGRSFSHATALESDYNEDNLDYYDVNEEEAEYLPGEPEEALNGHSSIDVSFQSKVDTKPLEESSTLDPHTKEGTSLGEVGGPDLKGQVEPWDERETRSPAPPEVDRDSLAPSWETPPPYPENGSIQPYPDGGPVPSEMDVPPAHPEEEIVLRSYPASGHTTPLSRGTYEVGLEDNIGSNTEVFTYNAANKETCEHNHRQCSRHAFCTDYATGFCCHCQSKFYGNGKHCLPEGAPHRVNGKVSGHLHVGHTPVHFTDVDLHAYIVGNDGRAYTAISHIPQPAAQALLPLTPIGGLFGWLFALEKPGSENGFSLAGAAFTHDMEVTFYPGEETVRITQTAEGLDPENYLSIKTNIQGQVPYVSANFTAHISPYKELYHYSDSTVTSTSSRDYSLTFGAINQTWSYRIHQNITYQVCRHAPRHPSFPTTQQLNVDRVFALYNDEERVLRFAVTNQIGPVKEDSDPTPGNPCYDGSHMCDTTARCHPGTGVDYTCECASGYQGDGRNCVDENECATGFHRCGPNSVCINLPGSYRCECRSGYEFADDRHTCILITPPANPCEDGSHTCAPAGQARCVHHGGSTFSCACLPGYAGDGHQCTDVDECSENRCHPAATCYNTPGSFSCRCQPGYYGDGFQCIPDSTSSLTPCEQQQRHAQAQYAYPGARFHIPQCDEQGNFLPLQCHGSTGFCWCVDPDGHEVPGTQTPPGSTPPHCGPSPEPTQRPPTICERWRENLLEHYGGTPRDDQYVPQCDDLGHFIPLQCHGKSDFCWCVDKDGREVQGTRSQPGTTPACIPTVAPPMVRPTPRPDVTPPSVGTFLLYTQGQQIGYLPLNGTRLQKDAAKTLLSLHGSIIVGIDYDCRERMVYWTDVAGRTISRAGLELGAEPETIVNSGLISPEGLAIDHIRRTMYWTDSVLDKIESALLDGSERKVLFYTDLVNPRAIAVDPIRGNLYWTDWNREAPKIETSSLDGENRRILINTDIGLPNGLTFDPFSKLLCWADAGTKKLECTLPDGTGRRVIQNNLKYPFSIVSYADHFYHTDWRRDGVVSVNKHSGQFTDEYLPEQRSHLYGITAVYPYCPTGRK
notes: also called NID2
